From patent publication US20200262877A1, “ION CHANNEL-BINDING PEPTIDES AND METHODS OF USE THEREOF” (priority 2017, published 2020)

How the values were obtained:
[1] = molecular target: T1, 5HT3a (Homo sapiens, UniProt P46098); test: Ion channel panel (IonWorks Barracuda): 5HT3a; type: cell-based
T1 construct: host or cells: HEK293 or CHO
T1 sequence (P46098 whole entry, looked up): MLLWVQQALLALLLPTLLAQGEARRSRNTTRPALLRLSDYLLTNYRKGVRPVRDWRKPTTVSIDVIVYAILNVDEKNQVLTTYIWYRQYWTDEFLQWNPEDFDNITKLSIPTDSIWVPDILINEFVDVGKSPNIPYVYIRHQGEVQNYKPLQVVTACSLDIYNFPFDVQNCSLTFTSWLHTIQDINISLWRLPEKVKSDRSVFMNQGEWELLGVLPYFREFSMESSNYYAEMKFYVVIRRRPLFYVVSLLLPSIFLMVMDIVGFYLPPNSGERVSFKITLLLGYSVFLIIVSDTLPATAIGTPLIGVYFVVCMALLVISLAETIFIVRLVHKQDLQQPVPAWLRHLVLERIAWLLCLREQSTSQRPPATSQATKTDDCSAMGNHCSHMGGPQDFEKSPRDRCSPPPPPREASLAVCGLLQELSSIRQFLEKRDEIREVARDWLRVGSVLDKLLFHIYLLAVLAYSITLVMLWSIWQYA
Outline: (§1)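 Peptides were tested in duplicate at final 20 μM and 200 nM, with concentration set by amino acid analysis, in HEPES-buffered saline. They were applied for at least 5 min to HEK293 or CHO cells transfected with each channel. Currents were expressed as % inhibition, 1-(Ipeptide/Icontrol)×100, or % activation, Ipeptide/Icontrol×100, against a channel-matched reference compound.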

[2] = molecular target: T2, α3β4 (Homo sapiens, UniProt P30926+P32297); test: Ion channel panel (IonWorks Barracuda): α3β4; type: cell-based; settings: 100% = no change, <100% = inhibition
T2 construct: host or cells: HEK293 or CHO
Outline: as §1

[3] = molecular target: T3, α4β2 (Homo sapiens, UniProt P17787+P43681); test: Ion channel panel (IonWorks Barracuda): α4β2; type: cell-based; settings: 100% = no change, <100% = inhibition
T3 construct: host or cells: HEK293 or CHO
Outline: as §1

[4] = molecular target: T4, Cav2.1 (Homo sapiens, UniProt O00555); test: cell-based; settings: 100% = no change, <100% = inhibition
T4 construct: host or cells: HEK293 or CHO
Outline: as §1

[5] = molecular target: T5, Cav2.2 (Homo sapiens, UniProt Q00975); test: cell-based; settings: 100% = no change, <100% = inhibition
T5 construct: host or cells: HEK293 or CHO
Outline: as §1

[6] = molecular target: T6, Kv2.1 (Homo sapiens, UniProt Q14721); test: cell-based; settings: 100% = no change, <100% = inhibition
T6 construct: host or cells: HEK293 or CHO
Outline: as §1

[7] = tested on: GABA; test: Ion channel panel (IonWorks Barracuda): GABA; type: cell-based; settings: 100% = no change, <100% = inhibition
Outline: as §1

[8] = molecular target: Nav1.5 (Homo sapiens, UniProt Q14524); test: in vitro; settings: 100% = no change; for Activity of Nav1.5 with peptide, expressed as a percentage of the reference compound: peptide at 0.2 μM; for Activity of Nav1.5 with peptide (percentage of the reference compound): peptide at 20 μM
Outline: as §1

[9] = molecular target: hERG (Homo sapiens, UniProt Q12809); test: in vitro; settings: 100% = no change, <100% = inhibition
Outline: as §1

[10] = molecular target: T7, Kir2.1 (Homo sapiens, UniProt P63252); test: Ion channel panel (IonWorks Barracuda): Kir2.1; type: cell-based; settings: 100% = no change, <100% = inhibition
T7 construct: host or cells: HEK293 or CHO
Outline: as §1

[11] = molecular target: T8, Kv1.1 (Homo sapiens, UniProt Q09470); test: cell-based; type: cell-based; settings: 100% = no change, <100% = inhibition
T8 construct: host or cells: HEK293 or CHO
Outline: as §1

[12] = molecular target: T9, Kv1.2 (Homo sapiens, UniProt P16389); test: cell-based; type: cell-based; settings: 100% = no change, <100% = inhibition
T9 construct: host or cells: HEK293 or CHO
Outline: as §1

[13] = molecular target: T10, Kv1.3 (Homo sapiens, UniProt P22001); test: cell-based; type: cell-based; settings: 100% = no change, <100% = inhibition
T10 construct: host or cells: HEK293 or CHO
Outline: as §1

[14] = molecular target: T11, Nav1.7 (Homo sapiens, UniProt Q15858); test: cell-based; type: cell-based; settings: 100% = no change; for Activity of Nav1.7 with peptide, expressed as a percentage of the reference compound: peptide at 0.2 μM; for Activity of Nav1.7 with peptide (percentage of the reference compound): peptide at 20 μM
T11 construct: host or cells: HEK293 or CHO

[15] = molecular target: T12, NR2A (Homo sapiens, UniProt Q12879); test: Ion channel panel (IonWorks Barracuda): NR2A; type: cell-based; settings: 100% = no change, <100% = inhibition
T12 construct: host or cells: HEK293 or CHO
Outline: as §1

[16] = molecular target: T13, NR2B (Homo sapiens, UniProt Q13224); test: Ion channel panel (IonWorks Barracuda): NR2B; type: cell-based; settings: 100% = no change, <100% = inhibition
T13 construct: host or cells: HEK293 or CHO
Outline: as §1

[17] = molecular target: T14, TRPA1 (Homo sapiens, UniProt O75762); test: Ion channel panel (IonWorks Barracuda): TRPA1; type: cell-based; settings: 100% = no change, <100% = inhibition
T14 construct: host or cells: HEK293 or CHO
Outline: as §1

[18] = molecular target: T15, TRPV1 (Homo sapiens, UniProt Q8NER1); test: Ion channel panel (IonWorks Barracuda): TRPV1; type: cell-based; settings: 100% = no change, <100% = inhibition
T15 construct: host or cells: HEK293 or CHO
Outline: as §1

[19] = first of two Nav1.5 columns (probably TP1)
[20] = second of two Nav1.5 columns (probably TP2)
[21] = first of two Nav1.7 columns (probably TP1)
[22] = second of two Nav1.7 columns (probably TP2)

Nav1.5, sequence (Q14524 whole entry): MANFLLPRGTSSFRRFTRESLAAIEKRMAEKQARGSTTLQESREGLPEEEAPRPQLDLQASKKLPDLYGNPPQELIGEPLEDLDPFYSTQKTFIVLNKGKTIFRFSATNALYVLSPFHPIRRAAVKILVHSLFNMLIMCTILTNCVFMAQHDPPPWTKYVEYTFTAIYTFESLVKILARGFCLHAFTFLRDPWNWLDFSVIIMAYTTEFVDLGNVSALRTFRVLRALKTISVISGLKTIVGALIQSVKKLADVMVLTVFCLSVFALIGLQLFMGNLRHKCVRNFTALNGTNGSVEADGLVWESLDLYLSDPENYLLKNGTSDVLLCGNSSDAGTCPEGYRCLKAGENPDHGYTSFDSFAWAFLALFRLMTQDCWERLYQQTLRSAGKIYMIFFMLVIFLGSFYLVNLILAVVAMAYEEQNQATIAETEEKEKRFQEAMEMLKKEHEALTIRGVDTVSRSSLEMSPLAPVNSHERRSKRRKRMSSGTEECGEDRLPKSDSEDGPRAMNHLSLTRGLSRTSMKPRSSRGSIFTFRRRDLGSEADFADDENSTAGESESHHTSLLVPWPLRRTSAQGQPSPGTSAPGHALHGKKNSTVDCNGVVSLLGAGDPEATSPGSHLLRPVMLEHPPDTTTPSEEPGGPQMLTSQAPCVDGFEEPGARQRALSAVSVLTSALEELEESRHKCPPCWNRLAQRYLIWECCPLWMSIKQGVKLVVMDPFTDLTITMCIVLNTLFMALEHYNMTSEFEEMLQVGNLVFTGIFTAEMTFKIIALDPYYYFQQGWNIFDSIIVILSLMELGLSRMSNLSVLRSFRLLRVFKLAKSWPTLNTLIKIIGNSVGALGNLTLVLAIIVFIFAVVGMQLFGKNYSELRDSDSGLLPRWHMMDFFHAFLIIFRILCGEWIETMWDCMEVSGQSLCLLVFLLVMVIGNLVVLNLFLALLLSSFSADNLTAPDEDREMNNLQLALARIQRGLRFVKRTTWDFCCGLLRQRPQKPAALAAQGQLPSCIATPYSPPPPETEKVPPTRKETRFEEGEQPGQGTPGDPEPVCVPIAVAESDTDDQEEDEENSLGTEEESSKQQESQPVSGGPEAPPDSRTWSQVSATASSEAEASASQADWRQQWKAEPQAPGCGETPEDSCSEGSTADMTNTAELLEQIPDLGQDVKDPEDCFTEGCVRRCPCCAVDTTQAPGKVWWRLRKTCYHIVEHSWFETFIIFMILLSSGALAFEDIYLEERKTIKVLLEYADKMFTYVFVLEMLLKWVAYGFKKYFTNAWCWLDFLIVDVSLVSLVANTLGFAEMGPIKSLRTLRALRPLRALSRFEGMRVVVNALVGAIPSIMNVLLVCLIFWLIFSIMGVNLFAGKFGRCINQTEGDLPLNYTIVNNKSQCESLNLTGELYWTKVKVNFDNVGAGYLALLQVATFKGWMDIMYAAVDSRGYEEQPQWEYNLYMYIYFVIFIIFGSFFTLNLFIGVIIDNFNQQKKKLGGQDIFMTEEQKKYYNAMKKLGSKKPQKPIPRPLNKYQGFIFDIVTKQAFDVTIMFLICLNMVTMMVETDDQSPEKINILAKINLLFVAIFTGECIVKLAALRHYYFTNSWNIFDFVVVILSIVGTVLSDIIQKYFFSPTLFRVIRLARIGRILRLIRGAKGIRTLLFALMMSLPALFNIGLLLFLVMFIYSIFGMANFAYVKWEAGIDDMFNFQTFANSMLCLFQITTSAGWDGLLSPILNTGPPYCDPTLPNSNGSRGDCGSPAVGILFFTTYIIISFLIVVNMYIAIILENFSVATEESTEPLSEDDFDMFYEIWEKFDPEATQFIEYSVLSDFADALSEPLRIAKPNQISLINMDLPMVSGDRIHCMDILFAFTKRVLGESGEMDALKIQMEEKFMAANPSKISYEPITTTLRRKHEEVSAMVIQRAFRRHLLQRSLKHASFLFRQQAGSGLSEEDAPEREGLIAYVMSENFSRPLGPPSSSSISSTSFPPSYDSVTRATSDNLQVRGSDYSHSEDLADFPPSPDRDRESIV
T11 sequence (Q15858 whole entry): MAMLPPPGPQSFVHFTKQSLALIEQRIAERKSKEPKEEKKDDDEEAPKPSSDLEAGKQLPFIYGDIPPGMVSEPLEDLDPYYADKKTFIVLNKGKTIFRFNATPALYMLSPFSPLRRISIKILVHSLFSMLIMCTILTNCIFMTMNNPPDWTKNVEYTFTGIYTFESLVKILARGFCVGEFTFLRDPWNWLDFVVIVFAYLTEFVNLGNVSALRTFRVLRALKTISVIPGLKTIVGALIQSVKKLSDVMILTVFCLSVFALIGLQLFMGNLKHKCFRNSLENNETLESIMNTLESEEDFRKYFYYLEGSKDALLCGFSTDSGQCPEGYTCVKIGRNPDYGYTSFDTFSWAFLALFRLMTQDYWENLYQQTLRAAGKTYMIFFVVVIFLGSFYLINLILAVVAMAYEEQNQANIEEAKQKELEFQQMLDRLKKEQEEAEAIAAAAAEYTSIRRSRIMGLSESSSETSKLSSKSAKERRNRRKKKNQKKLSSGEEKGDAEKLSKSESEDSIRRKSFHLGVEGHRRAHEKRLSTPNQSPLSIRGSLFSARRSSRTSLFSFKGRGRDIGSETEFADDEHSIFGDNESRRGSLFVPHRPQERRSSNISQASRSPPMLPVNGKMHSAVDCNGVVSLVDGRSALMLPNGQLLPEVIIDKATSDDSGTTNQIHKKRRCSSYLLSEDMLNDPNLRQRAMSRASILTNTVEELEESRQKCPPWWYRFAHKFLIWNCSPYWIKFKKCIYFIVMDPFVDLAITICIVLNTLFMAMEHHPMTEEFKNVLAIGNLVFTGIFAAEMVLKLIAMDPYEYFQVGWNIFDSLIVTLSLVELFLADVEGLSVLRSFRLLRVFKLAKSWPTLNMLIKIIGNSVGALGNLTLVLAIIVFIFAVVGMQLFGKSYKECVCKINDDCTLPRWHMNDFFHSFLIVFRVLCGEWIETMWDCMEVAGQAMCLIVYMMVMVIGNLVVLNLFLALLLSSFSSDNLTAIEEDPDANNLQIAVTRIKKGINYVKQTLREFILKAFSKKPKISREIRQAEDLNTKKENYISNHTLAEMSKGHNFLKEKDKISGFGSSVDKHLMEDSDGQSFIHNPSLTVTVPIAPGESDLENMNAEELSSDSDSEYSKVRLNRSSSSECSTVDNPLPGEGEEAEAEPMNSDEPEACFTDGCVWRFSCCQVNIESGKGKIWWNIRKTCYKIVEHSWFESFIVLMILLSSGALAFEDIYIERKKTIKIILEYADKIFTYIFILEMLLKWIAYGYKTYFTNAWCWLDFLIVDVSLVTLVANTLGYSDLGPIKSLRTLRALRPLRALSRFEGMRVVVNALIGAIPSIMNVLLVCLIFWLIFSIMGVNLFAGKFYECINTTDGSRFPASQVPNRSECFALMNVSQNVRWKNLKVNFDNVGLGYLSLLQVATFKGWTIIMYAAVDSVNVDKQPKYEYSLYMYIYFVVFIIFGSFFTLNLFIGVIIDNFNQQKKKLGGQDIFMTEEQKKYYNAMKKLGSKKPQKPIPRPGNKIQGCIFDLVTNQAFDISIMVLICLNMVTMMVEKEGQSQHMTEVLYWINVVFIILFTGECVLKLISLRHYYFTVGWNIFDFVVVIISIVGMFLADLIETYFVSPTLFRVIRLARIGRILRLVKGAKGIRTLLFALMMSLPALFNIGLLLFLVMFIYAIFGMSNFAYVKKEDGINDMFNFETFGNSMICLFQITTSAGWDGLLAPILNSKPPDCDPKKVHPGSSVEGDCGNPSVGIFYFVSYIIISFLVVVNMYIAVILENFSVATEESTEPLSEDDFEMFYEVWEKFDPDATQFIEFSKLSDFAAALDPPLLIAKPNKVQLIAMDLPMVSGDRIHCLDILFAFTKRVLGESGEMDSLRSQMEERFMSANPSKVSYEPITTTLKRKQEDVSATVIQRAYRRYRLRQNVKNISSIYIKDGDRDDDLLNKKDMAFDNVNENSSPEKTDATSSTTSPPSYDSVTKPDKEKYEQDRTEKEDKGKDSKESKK
T8 sequence (Q09470 whole entry): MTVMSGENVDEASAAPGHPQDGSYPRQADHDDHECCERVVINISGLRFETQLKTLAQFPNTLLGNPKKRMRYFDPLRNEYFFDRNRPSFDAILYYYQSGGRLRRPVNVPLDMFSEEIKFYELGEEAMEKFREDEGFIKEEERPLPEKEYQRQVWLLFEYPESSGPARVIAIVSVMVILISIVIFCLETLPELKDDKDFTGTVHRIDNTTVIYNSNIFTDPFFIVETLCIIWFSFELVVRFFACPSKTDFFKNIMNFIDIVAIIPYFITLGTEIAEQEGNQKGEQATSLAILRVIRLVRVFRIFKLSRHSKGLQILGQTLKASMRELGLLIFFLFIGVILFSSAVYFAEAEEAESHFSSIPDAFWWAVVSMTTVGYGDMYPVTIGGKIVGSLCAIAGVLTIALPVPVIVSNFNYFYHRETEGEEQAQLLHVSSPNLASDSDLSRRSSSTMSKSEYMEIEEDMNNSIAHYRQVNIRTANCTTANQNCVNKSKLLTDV
T10 sequence (P22001 whole entry): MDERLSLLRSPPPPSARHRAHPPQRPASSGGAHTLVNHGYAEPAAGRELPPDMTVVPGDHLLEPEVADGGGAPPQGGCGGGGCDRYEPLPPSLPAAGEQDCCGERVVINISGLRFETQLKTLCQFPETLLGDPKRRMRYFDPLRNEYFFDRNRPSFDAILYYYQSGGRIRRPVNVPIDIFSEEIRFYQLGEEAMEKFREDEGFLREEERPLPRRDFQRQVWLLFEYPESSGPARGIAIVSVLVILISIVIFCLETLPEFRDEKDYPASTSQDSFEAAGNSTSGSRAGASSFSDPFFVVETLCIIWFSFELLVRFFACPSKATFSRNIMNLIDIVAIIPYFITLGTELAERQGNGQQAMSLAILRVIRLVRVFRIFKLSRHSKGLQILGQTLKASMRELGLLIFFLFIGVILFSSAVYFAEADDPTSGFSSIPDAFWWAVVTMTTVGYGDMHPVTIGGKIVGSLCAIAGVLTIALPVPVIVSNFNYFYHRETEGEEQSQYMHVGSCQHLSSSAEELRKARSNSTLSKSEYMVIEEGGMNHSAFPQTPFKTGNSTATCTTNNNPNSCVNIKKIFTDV

In the case of “24 (GSSCAKPGEMCMRIKCCDGQCGCNRGTGRCFCK) [compound 24]”, the “Activity of 5HT3a with peptide (percentage of the reference compound)” value [1] is reported as 84%, the “Activity of 5HT3a with peptide, expressed as a percentage of the reference compound” value [1] is reported as 85% and the “Activity of a3b4 with peptide, expressed as a percentage of the reference compound” value ([2]; peptide at 0.2 μM) is reported as 101%. The “Activity of a3b4 with peptide (percentage of the reference compound)” value ([2]; peptide at 20 μM) was 87%, the “Activity of a4b2 with peptide, expressed as a percentage of the reference compound” value ([3]; peptide at 0.2 μM) was 97% and the “Activity of a4b2 with peptide (percentage of the reference compound)” value ([3]; peptide at 20 μM) was 88%. For the same substance, the “Activity of Cav2.1 with peptide, expressed as a percentage of the reference compound” value ([4]; peptide at 0.2 μM) was 92%, the “Activity of Cav2.1 with peptide (percentage of the reference compound)” value ([4]; peptide at 20 μM) was 121% and the “Activity of Cav2.2 with peptide, expressed as a percentage of the reference compound” value ([5]; peptide at 0.2 μM) was 120%. The “Activity of Cav2.2 with peptide (percentage of the reference compound)” value ([5]; peptide at 20 μM) was 102%, the “Activity of Kv2.1 with peptide, expressed as a percentage of the reference compound” value ([6]; peptide at 0.2 μM) was 91% and the “Activity of Kv2.1 with peptide (percentage of the reference compound)” value ([6]; peptide at 20 μM) was 81%. The “Activity of GABA with peptide, expressed as a percentage of the reference compound” value ([7]; peptide at 0.2 μM) was 96%, the “Activity of GABA with peptide (percentage of the reference compound)” value ([7]; peptide at 20 μM) was 114% and the “Activity of Nav1.5 with peptide, expressed as a percentage of the reference compound” value [8, 19] was 94%. For the same substance, the “Activity of Nav1.5 with peptide, expressed as a percentage of the reference compound” value [8, 20] was 95%, the “Activity of Nav1.5 with peptide (percentage of the reference compound)” value [8, 19] was 99% and the “Activity of Nav1.5 with peptide (percentage of the reference compound)” value [8, 20] was 104%. For the same substance, the “Activity of hERG with peptide, expressed as a percentage of the reference compound” value ([9]; peptide at 0.2 μM) was 88%, the “Activity of hERG with peptide (percentage of the reference compound)” value ([9]; peptide at 20 μM) was 78% and the “Activity of Kir2.1 with peptide, expressed as a percentage of the reference compound” value ([10]; peptide at 0.2 μM) was 104%. For the same substance, the “Activity of Kir2.1 with peptide (percentage of the reference compound)” value ([10]; peptide at 20 μM) was 90%, the “Activity of Kv1.1 with peptide, expressed as a percentage of the reference compound” value ([11]; peptide at 0.2 μM) was 65% and the “Activity of Kv1.1 with peptide (percentage of the reference compound)” value ([11]; peptide at 20 μM) was 69%. The “Activity of Kv1.2 with peptide, expressed as a percentage of the reference compound” value ([12]; peptide at 0.2 μM) was 74%, the “Activity of Kv1.2 with peptide (percentage of the reference compound)” value ([12]; peptide at 20 μM) was 83% and the “Activity of Kv1.3 with peptide, expressed as a percentage of the reference compound” value ([13]; peptide at 0.2 μM) was 94%. The “Activity of Kv1.3 with peptide (percentage of the reference compound)” value ([13]; peptide at 20 μM) was 73%, the “Activity of Nav1.7 with peptide, expressed as a percentage of the reference compound” value [14, 21] was 84% and the “Activity of Nav1.7 with peptide, expressed as a percentage of the reference compound” value [14, 22] was 97%. For the same substance, the “Activity of Nav1.7 with peptide (percentage of the reference compound)” value [14, 21] was 80%, the “Activity of Nav1.7 with peptide (percentage of the reference compound)” value [14, 22] was 83% and the “Activity of NR2A with peptide, expressed as a percentage of the reference compound” value ([15]; peptide at 0.2 μM) was 102%. The “Activity of NR2A with peptide (percentage of the reference compound)” value ([15]; peptide at 20 μM) was 100%, the “Activity of NR2B with peptide, expressed as a percentage of the reference compound” value ([16]; peptide at 0.2 μM) was 102% and the “Activity of NR2B with peptide (percentage of the reference compound)” value ([16]; peptide at 20 μM) was 92%. For the same substance, the “Activity of TRPA1 with peptide, expressed as a percentage of the reference compound” value ([17]; peptide at 0.2 μM) was 132%, the “Activity of TRPA1 with peptide (percentage of the reference compound)” value ([17]; peptide at 20 μM) was 107% and the “Activity of TRPV1 with peptide, expressed as a percentage of the reference compound” value ([18]; peptide at 0.2 μM) was 131%. The “Activity of TRPV1 with peptide (percentage of the reference compound)” value ([18]; peptide at 20 μM) was 102%.
